Results published in patent US20240116985A1, “STAPLED PEPTIDES AND METHODS THEREOF” (priority 2020, published 2024).
Starred links: 1 amine or outer side, 2 acyl side, 3 side chain; linkers in the order of their positions; H or OH if unused. Positions of bridges follow the written chain, without caps; N, C: chain ends. Non-standard residues stand in square brackets, D forms with d. Primed or numbered codes have the meaning given here. PyrS2″ = (S)-3-amino-1-((pent-4-en-1-yloxy)carbonyl)pyrrolidine-3-carboxylic acid (stapling residue), C=CCCCOC(=O)N1CC[C@@](N[*:1])(C(=O)[*:2])C1; B5(4) = 2,2-bis(4-pentenyl)glycine = 2-amino-2-(pent-4-en-1-yl)hept-6-enoic acid (stitching residue), C=CCCCC(CCCC=C)(N[*:1])C(=O)[*:2]; B5(5) = 2,2-bis(4-pentenyl)glycine, 2-amino-2-(pent-4-en-1-yl)hept-6-enoic acid (stitching residue), C=CCCCC(CCCC=C)(N[*:1])C(=O)[*:2]; TfeGA = (S)-2-amino-3-((carboxymethyl)(2,2,2-trifluoroethyl)amino)propanoic acid, O=C([C@H](CN(CC(=O)[*:3])CC(F)(F)F)N[*:1])[*:2]; (EtSSpy)AspE = (S)-2-amino-4-oxo-4-(2-(pyridin-2-yldisulfaneyl)ethoxy)butanoic acid, O=C(C[C@H](N[*:1])C(=O)[*:2])OCCSSc1ccccn1; PyrS2 = (S)-3-amino-1-((pent-4-en-1-yloxy)carbonyl)pyrrolidine-3-carboxylic acid, C=CCCCOC(=O)N1CC[C@@](N[*:1])(C(=O)[*:2])C1; AspSH = (S)-2-amino-4-mercapto-4-oxobutanoic acid, O=C(C[C@H](N[*:1])C(=O)[*:2])S[*:3]; B5 = 2-amino-2-(pent-4-en-1-yl)hept-6-enoic acid, C=CCCCC(CCCC=C)(N[*:1])C(=O)[*:2]; Phe(2-Cl) = N[C@@H](Cc1ccccc1Cl)C(=O)O; Bta = N[C@@H](Cc1csc2ccccc12)C(=O)O; αAllylPro = C=CC[C@@]1(C(=O)O)CCCN1; tBuAla = CC(C)(C)C[C@H](N)C(=O)O; 3Thi = N[C@@H](Cc1ccsc1)C(=O)O; S8 = C=CCCCCCC[C@](C)(N)C(=O)O; hLeu = CC(C)CC[C@H](N)C(=O)O; Abu = CC[C@H](N)C(=O)O

B1: I-584 (peptide)
peptide: Ac-[αAllylPro]D[hLeu][B5(5)]DDAAFN[S8]F[Bta]H-NH2
modifications: staple 1-4, 4-11
B2: I-575 (peptide)
peptide: Ac-[αAllylPro]D[Abu][B5]DDAAFN[S8]F[Bta]H-NH2
modifications: staple 1-4, 4-11
B3: I-583 (peptide)
peptide: Ac-[αAllylPro]D[hLeu][B5(5)]DDAAFN[S8]F[Bta]H-NH2
modifications: staple 1-4, 4-11; also: staple isomer, earlier eluting HPLC peak
B4: I-568 (peptide)
peptide: Ac-[αAllylPro]D[Abu][B5(4)]DEAAFQ[S8]F[Bta]Q-NH2
modifications: staple 1-4, 4-11
B5: I-569 (peptide)
peptide: Ac-[αAllylPro]D[Abu][B5(4)]DEAAFQ[S8]F[Bta]Q-NH2
modifications: staple 1-4, 4-11
B6: I-570 (peptide)
peptide: Ac-[αAllylPro]D[Abu][B5(4)]DEAAFQ[S8]F[Bta]H-NH2
modifications: staple 1-4, 4-11
B7: I-1743 (peptide)
peptide: Ac-[αAllylPro]D[tBuAla][B5(4)]NTAAFN[PyrS2″][3Thi][Bta]R-NH2
modifications: staple 1-4, 4-11
B8: I-1722 (peptide)
peptide: Ac-[αAllylPro][AspSH][tBuAla][B5]DDAAFN[PyrS2][Phe(2-Cl)][Bta]Q-NH2
modifications: staple 1-4, 4-11; not fully specified
B9: I-1723 (peptide)
peptide: Ac-[αAllylPro][(EtSSpy)AspE][tBuAla][B5]DDAAFN[PyrS2][Phe(2-Cl)][Bta]Q-NH2
modifications: staple 1-4, 4-11; also: earlier-eluting isomer
B10: I-1746 (peptide)
peptide: Ac-[αAllylPro]D[tBuAla][B5(4)]NTAAFN[PyrS2″][3Thi][Bta]N-NH2
modifications: staple 1-4, 4-11
B11: I-1742 (peptide)
peptide: Ac-[αAllylPro]D[tBuAla][B5(4)]NTAAFN[PyrS2″][3Thi][Bta]-NH2
modifications: staple 1-4, 4-11
B12: I-1724 (peptide)
peptide: Ac-[αAllylPro][(EtSSpy)AspE][tBuAla][B5]DDAAFN[PyrS2][Phe(2-Cl)][Bta]Q-NH2
modifications: staple 1-4, 4-11; not fully specified
B13: I-1745 (peptide)
peptide: Ac-[αAllylPro]D[tBuAla][B5(4)]NTAAFN[PyrS2″][3Thi][Bta]T-NH2
modifications: staple 1-4, 4-11
B14: I-1744 (peptide)
peptide: Ac-[αAllylPro]D[tBuAla][B5(4)]NTAAFN[PyrS2″][3Thi][Bta]F-NH2
modifications: staple 1-4, 4-11
B15: I-1747 (peptide)
peptide: Ac-[αAllylPro]D[tBuAla][B5(5)]D[TfeGA]AAFL[PyrS2″][3Thi][Bta]L-NH2
modifications: staple 1-4, 4-11
B16: I-1741 (peptide)
peptide: Ac-[αAllylPro]D[tBuAla][B5(4)]NTAAFW[PyrS2″][3Thi][Bta]Q-NH2
modifications: staple 1-4, 4-11

Target: full-length beta-Catenin (Uniprot ID P35222) (Homo sapiens (Human)) (UniProt P35222)
Test: fluorescence polarization competition; full-length beta-catenin, competitor 5FAM-TCF4(10-53) probe
Target sequence in this assay (P35222 whole entry): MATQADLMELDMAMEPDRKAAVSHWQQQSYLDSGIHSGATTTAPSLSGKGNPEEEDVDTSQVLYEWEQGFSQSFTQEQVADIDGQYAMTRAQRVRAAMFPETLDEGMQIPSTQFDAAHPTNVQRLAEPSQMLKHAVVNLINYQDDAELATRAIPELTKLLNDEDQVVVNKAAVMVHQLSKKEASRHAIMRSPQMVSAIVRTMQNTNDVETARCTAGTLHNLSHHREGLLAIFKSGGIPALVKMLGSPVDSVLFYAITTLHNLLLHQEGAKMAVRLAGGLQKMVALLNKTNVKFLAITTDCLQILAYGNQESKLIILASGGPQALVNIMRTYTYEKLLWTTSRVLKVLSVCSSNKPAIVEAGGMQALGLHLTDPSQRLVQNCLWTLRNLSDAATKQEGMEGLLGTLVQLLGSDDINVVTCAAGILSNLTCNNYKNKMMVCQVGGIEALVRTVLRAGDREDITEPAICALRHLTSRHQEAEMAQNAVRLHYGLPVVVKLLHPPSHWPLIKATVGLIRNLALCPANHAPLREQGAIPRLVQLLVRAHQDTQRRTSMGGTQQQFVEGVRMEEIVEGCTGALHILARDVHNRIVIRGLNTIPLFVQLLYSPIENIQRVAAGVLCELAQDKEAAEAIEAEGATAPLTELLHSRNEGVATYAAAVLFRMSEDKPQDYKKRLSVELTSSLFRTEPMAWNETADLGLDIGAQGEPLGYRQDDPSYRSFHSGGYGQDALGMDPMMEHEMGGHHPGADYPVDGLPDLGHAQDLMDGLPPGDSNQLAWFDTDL

Binder | EC50 [nM]
B1 | 33
B2 | 21
B3 | 69

Target: full-length beta-Catenin (Uniprot ID P35222) (Homo sapiens (Human)) (UniProt P35222)
Test: competition fluorescence polarization; full-length beta-catenin, 5FAM-TCF4(10-53) probe as competitor
Target sequence in this assay (P35222 whole entry): as above

Binder | IC50 [nM]
B4 | 73
B5 | 42
B1 | 33
B6 | 56
B2 | 21
B3 | 69

Target: full-length beta-Catenin (Uniprot ID P35222) (Homo sapiens (Human)) (UniProt P35222)
Test: fluorescence polarization competition; displacement of 5FAM-TCF4(10-53) from full-length beta-catenin
Target sequence in this assay (P35222 whole entry): as above

Binder | EC50 [nM]
B4 | 73
B5 | 42
B6 | 56

Target: full-length beta-Catenin (Uniprot ID P35222) (Homo sapiens (Human)) (UniProt P35222)
Test: fluorescence polarization competition; 10 nM full-length beta-catenin + 10 nM 5FAM-TCF4(10-53) as competitor probe; peptide titrated
Target sequence in this assay (P35222 2-781 limits assumed): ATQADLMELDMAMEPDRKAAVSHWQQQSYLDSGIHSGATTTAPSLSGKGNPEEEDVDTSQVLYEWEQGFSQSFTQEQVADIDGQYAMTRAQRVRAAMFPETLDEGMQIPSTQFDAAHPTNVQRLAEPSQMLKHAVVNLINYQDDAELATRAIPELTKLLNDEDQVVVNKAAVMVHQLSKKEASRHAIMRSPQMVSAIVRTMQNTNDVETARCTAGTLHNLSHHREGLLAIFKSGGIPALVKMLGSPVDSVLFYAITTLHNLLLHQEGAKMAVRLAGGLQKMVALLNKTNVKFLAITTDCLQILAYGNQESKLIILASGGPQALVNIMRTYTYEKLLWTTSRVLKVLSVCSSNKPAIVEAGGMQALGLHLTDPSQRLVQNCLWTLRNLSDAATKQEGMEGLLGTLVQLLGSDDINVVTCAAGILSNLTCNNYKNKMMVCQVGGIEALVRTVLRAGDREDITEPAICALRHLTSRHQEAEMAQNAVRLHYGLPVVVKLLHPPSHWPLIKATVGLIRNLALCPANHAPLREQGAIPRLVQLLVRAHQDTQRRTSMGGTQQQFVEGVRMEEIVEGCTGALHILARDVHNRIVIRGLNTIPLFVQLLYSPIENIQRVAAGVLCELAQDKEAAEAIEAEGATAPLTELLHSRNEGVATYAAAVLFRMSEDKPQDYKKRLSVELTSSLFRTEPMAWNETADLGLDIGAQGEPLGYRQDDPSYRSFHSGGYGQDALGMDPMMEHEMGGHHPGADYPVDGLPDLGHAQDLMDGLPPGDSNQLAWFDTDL

Binder | IC50 [nM]
B7 | 469
B8 | 135
B9 | 62
B10 | 235
B11 | 867
B12 | 551
B13 | 402
B14 | 363
B15 | 187
B16 | 4390
